According to patent publication US7790682B1, “Engineered human acidic fibroblast growth factors and associated methods” (The Florida State University Research Foundation, Inc., priority 2003, dated 2010):

B1: SYM5/ΔΔ: SYM5 FGF-1 mutant plus both Δ104-106 and Δ120-122 deletion mutations (protein, UniProt P05230 16-155, looked up, variant L44F L73V V109L L111I C117V A103G del104-106 R119G del120-122)
Fibroblast growth factor 1: FNLPPGNYKKPKLLYCSNGGHFLRILPDGTVDGTRDRSDQHIQFQLSAESVGEVYIKSTETGQYLAMDTDGLVYGSQTPNEECLFLERLEENHYNTYISKKHGWFLGIKKNGSVKGTHYGQKAILFLPLPVSSD
B2: SYM6/Δ104-106: SYM6 FGF-1 mutant plus Ala103→Gly/ΔGlu104/ΔLys105/ΔAsn106 (protein, UniProt P05230 16-155, looked up, variant A103G E104* K105* N106*)
Fibroblast growth factor 1: FNLPPGNYKKPKLLYCSNGGHFLRILPDGTVDGTRDRSDQHIQLQLSAESVGEVYIKSTETGQYLAMDTDGLLYGSQTPNEECLFLERLEENHYNTYISKKHGWFVGLKKNGSCKRGPRTHYGQKAILFLPLPVSSD
modifications: SYM6 background mutations
notes: SYM6 FGF-1 mutant plus Ala103→Gly/ΔGlu104/ΔLys105/ΔAsn106
B3: SYM6/Δ120-122: SYM6 FGF-1 mutant plus Arg119→Gly/ΔGly120/ΔPro121/ΔArg122 (protein, UniProt P05230 16-155, looked up, variant L44F M67I L73V V109L L111I C117V R119G del120-122)
Fibroblast growth factor 1: FNLPPGNYKKPKLLYCSNGGHFLRILPDGTVDGTRDRSDQHIQFQLSAESVGEVYIKSTETGQYLAIDTDGLVYGSQTPNEECLFLERLEENHYNTYISKKHAEKNWFLGIKKNGSVKGTHYGQKAILFLPLPVSSD

Experiments:
[1] = Isothermal equilibrium denaturation in guanidine HCl monitored by CD; format: physicochemical; conditions: for Cm / m-value / ΔG0: GuHCl, 298K, CD signal at 227 nm; for ΔΔG: relative to WT*, negative value = more stable
Description: Protein samples were equilibrated overnight in 20 mM N-2-(acetamido)iminodiacetic acid (ADA), 100 mM NaCl pH 6.60 at 298K in 0.1M increments of guanidine HCl (GuHCl). All samples contained a final protein concentration of 25 μM. An Aviv model 202 circular dichroism spectrometer (Proterion Corp., Piscataway, N.J.) equipped with a Peltier controlled temperature unit maintaining a constant temperature of 298K was used for all spectroscopic measurements. For each sample, triplicate scans were collected and averaged. Buffer traces were collected, averaged and subtracted from the sample traces. Data smoothing was performed prior to buffer subtraction using a 5-point Fourier transform filter. The denaturation process was monitored by observing the change in CD signal at 227 nm with increasing GuHCl, according to published references. The general purpose non-linear least squares fitting program DataFit™ (Oakdale Engineering, Oakdale Pa.) was used to fit the change in molar ellipticity at 227 nm versus GuHCl concentration to a six parameter two state model: F=(F0N+SN[D]+F0D+SD[D])e^−((ΔG0+m[D]/RT)/1+e^−((ΔG0+m[D]/RT) (1) where [D] is the denaturant concentration, F0N and F0D are the 0M denaturant molar ellipticity intercepts for the native and denatured states, respectively, and SN and SD are the slopes of the native and denatured state baselines, respectively. ΔG0 and m describe the linear function of the unfolding free energy versus denaturant concentration at 298K. The effect of a given mutation upon the stability of the protein (ΔΔG) was calculated by taking the difference between the Cm values for WT* and mutant and multiplying by the average of the m values, as described by Pace and Scholtz (Measuring the conformational stability of a protein; in Protein Structure: A Practical Approach, Creighton, T. E., ed., pp. 299-321, Oxford University Press, Oxford; 1997): ΔΔG=(CmWT*−Cm mutant)(mWT*+mmutant)/2 (2) Folding Kinetics Measurements.
Previous studies by others of the stability and folding of FGF-1 have been performed by monitoring the fluorescence signal of the single buried Trp 107 in FGF-1. This Trp in the WT* structure is somewhat unusual in that it is more highly quenched in the native state than the denatured. […] We have previously compared the fluorescence and CD spectroscopic response of FGF-1 to denaturation by GuHCl and shown essentially indistinguishable results for both his-tagged and non-his-tagged forms. A tabulation of the mutant thermodynamic data from isothermal equilibrium denaturation, monitored by CD signal, is listed in Table II. The data in this table for the SYM6 mutant are from our previously published isothermal equilibrium denaturation study monitored by fluorescence.

[2] = Folding and unfolding kinetics (Chevron plot, stopped-flow CD, GuHCl); format: physicochemical; conditions: for kf: folding rate constant extrapolated to 0M GuHCl; for kf / ku: global Chevron fit; for ΔΔG‡-D / ΔΔG‡-N: in reference to WT*; for ΔΔG‡-D: positive value = decrease in folding activation barrier; for ΔΔG‡-N: positive value = decrease in unfolding activation barrier; for mf: slope of ln(kf) vs GuHCl; for mu: slope of ln(ku) vs GuHCl; for ku: unfolding rate constant extrapolated to 0M GuHCl
Description: Due to signal-to-noise considerations, relatively high protein concentrations (>100 μM) of FGF-1 were required for kinetic studies monitored by CD. At these concentrations protein precipitation occurred in ADA buffer. Therefore, a different buffering system was chosen for the kinetic studies to permit higher protein concentrations without precipitation. Protein samples were dialyzed against 50 mM sodium phosphate, 100 mM NaCl, 10 mM ammonium sulfate, 2 mM DTT, and typically 2.5, 3.0 or 3.8M GuHCl pH 7.5 overnight at 298K prior to data collection (higher concentrations of GuHCl were required to ensure complete denaturation for some stabilizing mutations).
Protein samples were degassed for 10 minutes prior to analysis. Refolding was initiated by a 1:10 dilution of protein solutions into 50 mM sodium phosphate, 100 mM NaCl, 10 mM ammonium sulfate, 2 mM DTT pH 7.5 containing either 0.1M or 0.05M increments of GuHCl up to the midpoint of denaturation. All data were collected using an Aviv model SF305 stopped flow system. Data collection times for each protein were designed to quantify the CD signal over 5 half-lives, or >96% of the total expected amplitude.
Protein samples (300 μM) were dialyzed against 50 mM sodium phosphate, 100 mM NaCl, 10 mM ammonium sulfate, 2 mM DTT pH 7.50 buffer overnight at 298K, and degassed for 10 min prior to data collection. Unfolding was initiated by 1:10 dilution of the native protein into 50 mM sodium phosphate, 100 mM NaCl, 10 mM ammonium sulfate, 2 mM DTT pH 7.5 buffer with final GuHCl concentration in the range of 1.5 to 5.5M in 0.5M increments. The unfolding process was quantified by following the change in CD signal at 227 nm, and data collection times for each protein were designed so as to monitor the CD signal over 3 to 4 half-lives, or >93% of the total expected amplitude.
Triplicate scans were collected for both folding and unfolding kinetic data at each GuHCl buffer condition. In all cases, data from at least three separate experiments were averaged. The kinetic rates and amplitudes versus denaturant concentration were calculated from the time dependent change in CD signal using a single exponential model: I(t)=Aexp(−kt)+C (3) where I(t) is the intensity of CD signal at time t, A is the corresponding amplitude, k is the observed rate constant for the reaction and C is a constant that is the asymptote of the CD signal. Folding and unfolding rate constant data were fit to a global function describing the contribution of both rate constants to the observed kinetics as a function of denaturant (“Chevron” plot): In(kobs)=In(kf0exp(mkfD)+ku0exp(mkuD)) (5) where kf0 and ku0 are the folding and unfolding rate constants, respectively, extrapolated to 0M denaturant, mkf and mku are the slopes of the linear functions relating In(kf) and In(ku), respectively, to D, the denaturant concentration. Changes in activation barriers upon mutation were calculated using a modified version of transition state theory: ΔΔG‡-D=RTIn(kf Mut/kfWT*) and ΔΔG‡-N=RTIn(ku Mut/kuWT*) (6) where kf Mut, ku Mut, kf WT* and ku WT* are the folding and unfolding rates for mutant and WT*, respectively, in water. ΔΔG‡-D, and ΔΔG‡-N are the changes in the activation barrier for folding and unfolding, respectively, between mutation and WT*. A positive value for ΔΔG‡-D or ‡‡G‡-N indicates a decrease in the associated activation barrier energy. Isothermal Titration Calorimetry.
Due to the relatively weak differential CD signal of native and denatured FGF-1, the folding kinetics study required relatively high protein concentrations (>5 mg/ml). […] Thus, the refolding rate constants were not obtainable below certain denaturant concentrations for these mutants. […] The SYM6Δ120-122 mutant is substantially destabilized relative to the WT* protein (see Table II) and presents a relatively short “folding arm” in the Chevron plot, for this reason there is greater uncertainty associated with the folding kinetics determined for this mutant. […]

Molecule	Cm [1] [M]	m-value [1] [kJ/mol M]	ΔG0 [1] [kcal/mol]	ΔΔG [1] [kcal/mol]	stability of the actual combination mutant ([1]; relative to the SYM5 protein) [kcal/mol]	folding behavior ([2]; all denaturant concentrations evaluated)	kf [2] [s⁻¹]	ΔΔG‡-D [2] [kcal/mol]	ΔΔG‡-N [2] [kcal/mol]	mf [2] [M⁻¹]	mu [2] [M⁻¹]	ku [2]
B1	1.89 ± 0.01	18.1 ± 0.7	8.17 ± 0.287	-3.8	-3.61	single exponential folding behavior	40.4	1.48	0.146	-4.57	0.66	0.88 1 × 10^−3 sec^−1
B2	1.21 ± 0.01	16.9 ± 0.5	4.9 ± 0.12	-0.669	–	–	30.1	1.31	0.935	-5.41	0.94	3.33 1 × 10^−3 sec^−1
B3	0.79 ± 0.01	20.0 ± 0.2	3.75 ± 0.048	1.29	–	–	17.3	0.98	1.45	-9.45	0.86	7.95 1 × 10^−3 sec^−1
